# B1: DR1 (dsDNA)
# DNA 1: TCGAGGGTAGGGGTCAGAGGTCACTCGTCGA
# DNA 2: TCGACGAGTGACCTCTGACCCCTACCCTCGA
# Target: RXRα WT (human, UniProt P19793 1-462)
# Experiment: EMSA; no ligand; two shifts; competed by 5x and 25x unlabeled DR1; 10 mM Tris HCl pH 8.0, 150 mM KCl, 0.5 mM EDTA, 0.1% Triton X-100, 12.5% glycerol, 0.2 mM DTT, 1 ug poly(dI-dC), 100 pmol probe in 20 uL; 10 min RT then 5 min 37 C; 5% PAGE in 0.5x TBE at 4 C
# Details: protein: recombinant; chain copies: 2; blunt
# Chain of RXRα WT (P19793 whole entry): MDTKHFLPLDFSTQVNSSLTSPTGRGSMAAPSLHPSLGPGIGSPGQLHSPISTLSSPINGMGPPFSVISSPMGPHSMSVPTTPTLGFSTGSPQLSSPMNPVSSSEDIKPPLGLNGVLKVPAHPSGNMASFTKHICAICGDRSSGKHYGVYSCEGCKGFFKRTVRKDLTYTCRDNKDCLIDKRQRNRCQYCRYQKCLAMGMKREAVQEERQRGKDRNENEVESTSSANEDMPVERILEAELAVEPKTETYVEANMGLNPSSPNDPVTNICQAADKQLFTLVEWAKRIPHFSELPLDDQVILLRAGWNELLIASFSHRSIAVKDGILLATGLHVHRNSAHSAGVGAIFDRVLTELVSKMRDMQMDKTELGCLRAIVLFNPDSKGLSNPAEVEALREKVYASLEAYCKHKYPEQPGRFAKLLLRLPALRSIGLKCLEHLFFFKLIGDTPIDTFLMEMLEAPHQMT
binder,measurement,value
B1,binding result,binds

# Source: PMC8597827, “The effect of S427F mutation on RXRα activity depends on its dimeric partner†”
